B1: TIR domain-containing adapter molecule 1 (Mus musculus), Q80UF7 (parent)
chain: MDNPGPSLRGAFGILGALERDRLTHLKHKLGSLCSGSQESKLLHAMVLLALGQDTEARVSLESLKMNTVAQLVAHQWADMETTEGPEEPPDLSWTVARLYHLLAEENLCPASTRDMAYQVALRDFASQGDHQLGQLQNEAWDRCSSDIKGDPSGFQPLHSHQGSLQPPSASPAVTRSQPRPIDTPDWSWGHTLHSTNSTASLASHLEISQSPTLAFLSSHHGTHGPSKLCNTPLDTQEPQLVPEGCQEPEEISWPPSVETSVSLGLPHEISVPEVSPEEASPILPDALAAPDTSVHCPIECTELSTNSRSPLTSTTESVGKQWPITSQRSPQVPVGDDSLQNTTSSSPPAQPPSLQASPKLPPSPLSSASSPSSYPAPPTSTSPVLDHSETSDQKFYNFVVIHARADEQVALRIREKLETLGVPDGATFCEEFQVPGRGELHCLQDAIDHSGFTILLLTASFDCSLSLHQINHALMNSLTQSGRQDCVIPLLPLECSQAQLSPDTTRLLHSIVWLDEHSPIFARKVANTFKTQKLQAQRVRWKKAQEARTLKEQSIQLEAERQNVAAISAAYTAYVHSYRAWQAEMNKLGVAFGKNLSLGTPTPSWPGCPQPIPSHPQGGTPVFPYSPQPPSFPQPPCFPQPPSFPQPPSFPLPPVSSPQSQSFPSASSPAPQTPGPQPLIIHHAQMVQLGVNNHMWGHTGAQSSDDKTECSENPCMGPLTDQGEPLLETPE
B2: Myeloid differentiation primary response protein MyD88 (Mus musculus), P22366 (parent)
chain: MSAGDPRVGSGSLDSFMFSIPLVALNVGVRRRLSLFLNPRTPVAADWTLLAEEMGFEYLEIRELETRPDPTRSLLDAWQGRSGASVGRLLELLALLDREDILKELKSRIEEDCQKYLGKQQNQESEKPLQVARVESSVPQTKELGGITTLDDPLGQTPELFDAFICYCPNDIEFVQEMIRQLEQTDYRLKLCVSDRDVLPGTCVWSIASELIEKRCRRMVVVVSDDYLQSKECDFQTKFALSLSPGVQQKRLIPIKYKAMKKDFPSILRFITICDYTNPCTKSWFWTRLAKALSLP

The first assay covers variants of B1. As to conditions: with cblb_mouse Cblb.
Target sequence in this assay (Q3TTA7 whole entry): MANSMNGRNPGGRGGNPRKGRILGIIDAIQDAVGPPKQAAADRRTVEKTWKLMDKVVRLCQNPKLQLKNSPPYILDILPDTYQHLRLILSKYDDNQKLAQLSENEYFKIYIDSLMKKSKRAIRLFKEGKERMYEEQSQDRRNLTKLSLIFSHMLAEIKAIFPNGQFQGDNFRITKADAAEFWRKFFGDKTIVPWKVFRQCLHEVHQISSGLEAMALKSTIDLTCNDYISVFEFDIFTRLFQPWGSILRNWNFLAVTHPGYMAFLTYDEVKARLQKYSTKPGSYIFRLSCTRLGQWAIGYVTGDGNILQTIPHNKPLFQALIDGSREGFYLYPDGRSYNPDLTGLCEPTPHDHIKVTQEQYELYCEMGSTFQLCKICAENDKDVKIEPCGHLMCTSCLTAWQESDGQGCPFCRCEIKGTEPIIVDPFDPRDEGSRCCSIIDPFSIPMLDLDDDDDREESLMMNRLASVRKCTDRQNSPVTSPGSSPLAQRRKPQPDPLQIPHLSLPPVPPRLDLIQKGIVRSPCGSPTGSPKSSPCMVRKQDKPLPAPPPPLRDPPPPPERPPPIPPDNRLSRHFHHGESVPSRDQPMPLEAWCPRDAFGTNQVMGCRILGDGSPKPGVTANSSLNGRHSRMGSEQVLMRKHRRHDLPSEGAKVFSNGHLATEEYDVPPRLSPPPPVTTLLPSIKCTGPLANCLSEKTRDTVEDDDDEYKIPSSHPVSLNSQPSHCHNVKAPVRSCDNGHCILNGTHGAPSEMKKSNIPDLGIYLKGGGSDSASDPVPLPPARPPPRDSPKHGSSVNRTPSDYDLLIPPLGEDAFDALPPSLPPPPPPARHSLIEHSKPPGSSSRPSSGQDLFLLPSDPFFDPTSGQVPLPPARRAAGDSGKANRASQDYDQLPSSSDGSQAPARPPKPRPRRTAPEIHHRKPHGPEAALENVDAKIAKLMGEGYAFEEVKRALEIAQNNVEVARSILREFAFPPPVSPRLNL
Consider Y375F, for which the “effect of a mutation on the interaction” value is on record as “decreasing interaction”.

In a further assay the parent is B2. Particulars: with cblb_mouse Cblb.
Target sequence in this assay (Q3TTA7 whole entry): as above
In the case of Y227F, the “effect of a mutation on the interaction” value is “decreasing interaction”.

Source of the values: IntAct's records for PubMed 20639876.
